Where two headings read alike, the source gives them in different places.

For one test, the target named is ERECTA (UniProt Q42371). Description: anti-MYC co-IP, anti-HA blot.
The target of test [1] is T1, GST-PUB30 (Arabidopsis thaliana, UniProt Q058P4 1-448).
T1 chain: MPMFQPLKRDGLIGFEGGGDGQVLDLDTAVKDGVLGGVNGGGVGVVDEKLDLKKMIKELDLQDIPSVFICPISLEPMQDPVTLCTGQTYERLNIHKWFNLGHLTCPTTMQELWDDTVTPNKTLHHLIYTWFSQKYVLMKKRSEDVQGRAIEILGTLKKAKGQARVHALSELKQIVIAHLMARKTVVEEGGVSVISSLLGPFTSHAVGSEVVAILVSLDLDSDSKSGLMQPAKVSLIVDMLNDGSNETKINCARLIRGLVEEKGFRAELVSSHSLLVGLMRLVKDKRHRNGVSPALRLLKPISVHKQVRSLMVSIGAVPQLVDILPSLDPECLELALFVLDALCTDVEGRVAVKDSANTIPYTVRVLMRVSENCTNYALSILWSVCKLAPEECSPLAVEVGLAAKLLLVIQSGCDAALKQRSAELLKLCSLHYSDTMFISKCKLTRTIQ
Put plainly: BLI. Background: Biolayer interferometry detects binding as a change in optical thickness at a sensor tip.

The target of test [2] is T2, GST-PUB31 (Arabidopsis thaliana, UniProt Q9FHN9 1-444).
T2 chain: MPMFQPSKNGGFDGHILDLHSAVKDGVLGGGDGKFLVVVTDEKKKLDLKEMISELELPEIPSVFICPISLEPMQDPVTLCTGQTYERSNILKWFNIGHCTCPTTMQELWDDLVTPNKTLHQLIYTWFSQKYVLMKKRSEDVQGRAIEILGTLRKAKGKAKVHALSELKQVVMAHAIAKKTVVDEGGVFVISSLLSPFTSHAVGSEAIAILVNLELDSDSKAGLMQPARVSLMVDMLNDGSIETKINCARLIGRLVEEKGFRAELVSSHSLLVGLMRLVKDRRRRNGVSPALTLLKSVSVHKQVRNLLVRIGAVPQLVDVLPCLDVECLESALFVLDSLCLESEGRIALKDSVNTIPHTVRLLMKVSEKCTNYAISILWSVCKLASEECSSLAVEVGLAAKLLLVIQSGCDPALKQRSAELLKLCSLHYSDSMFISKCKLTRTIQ
Put plainly: BLI.

Test [3] has as its target T1, GST-PUB30. Description: BLI.
Test [4] has as its target T2, GST-PUB31. Put plainly: BLI.

As to “PUB31 (from UniProt Q9FHN9) PUB31 T151A-MYC”, the “binding against the reference” value with ERECTA (reference: wild type PUB31-MYC, sites T151) was “weaker”.

As to “PUB30 (from UniProt Q058P4) PUB30 T155A-MYC”, in the test with ERECTA (reference: wild type PUB30-MYC, sites T155), the “binding against the reference” value is “weaker”.

B1: MBP-ERECTA_CD (domain or fragment)
chain: CRPHNPPPFLDGSLDKPVTYSTPKLVILHMNMALHVYEDIMRMTENLSEKYIIGHGASSTVYKCVLKNCKPVAIKRLYSHNPQSMKQFETELEMLSSIKHRNLVSLQAYSLSHLGSLLFYDYLENGSLWDLLHGPTKKKTLDWDTRLKIAYGAAQGLAYLHHDCSPRIIHRDVKSSNILLDKDLEARLTDFGIAKSLCVSKSHTSTYVMGTIGYIDPEYARTSRLTEKSDVYSYGIVLLELLTRRKAVDDESNLHHLIMSKTGNNEVMEMADPDITSTCKDLGVVKKVFQLALLCTKRQPNDRPTMHQVTRVLGSFMLSEQPPAATDTSATLAGSCYVDEYANLKTPHSVNCSSMSASDAQLFLRFGQVISQNSE
As a reminder, the Kd is the equilibrium constant for the complex coming apart. Low values mean tighter binding, high ones weaker binding. Consider B1, for which the Kd with GST-PUB30 [1] is 15 µM; with GST-PUB31 [2], 11 µM.

B2: MBP-BAK1_CD (domain or fragment)
chain: AWWRRKKPQDHFFDVPAEEDPEVHLGQLKRFSLRELQVASDNFSNKNILGRGGFGKVYKGRLADGTLVAVKRLKEERTQGGELQFQTEVEMISMAVHRNLLRLRGFCMTPTERLLVYPYMANGSVASCLRERPESQPPLDWPKRQRIALGSARGLAYLHDHCDPKIIHRDVKAANILLDEEFEAVVGDFGLAKLMDYKDTHVTTAVRGTIGHIAPEYLSTGKSSEKTDVFGYGVMLLELITGQRAFDLARLANDDDVMLLDWVKGLLKEKKLEALVDVDLQGNYKDEEVEQLIQVALLCTQSSPMERPKMSEVVRMLEGDGLAERWEEWQKEEMFRQDFNYPTHHPAVSGWIIGDSTSQIENEYPSGPR
For B2, the dissociation constant Kd in the test with GST-PUB30 [3] was found to be 2.4 µM; with GST-PUB31 [4] it was 2 µM.

The record behind these values is article PMC9873567 (2022).
